Sequences and labels used below:
T1: His-tagged CEACAM1 (human, UniProt P13688 35-428)
T1 construct: 45 kDa SPR analyte; also called CEACAM1-HIS; CEACAM1 analyte
T1 sequence: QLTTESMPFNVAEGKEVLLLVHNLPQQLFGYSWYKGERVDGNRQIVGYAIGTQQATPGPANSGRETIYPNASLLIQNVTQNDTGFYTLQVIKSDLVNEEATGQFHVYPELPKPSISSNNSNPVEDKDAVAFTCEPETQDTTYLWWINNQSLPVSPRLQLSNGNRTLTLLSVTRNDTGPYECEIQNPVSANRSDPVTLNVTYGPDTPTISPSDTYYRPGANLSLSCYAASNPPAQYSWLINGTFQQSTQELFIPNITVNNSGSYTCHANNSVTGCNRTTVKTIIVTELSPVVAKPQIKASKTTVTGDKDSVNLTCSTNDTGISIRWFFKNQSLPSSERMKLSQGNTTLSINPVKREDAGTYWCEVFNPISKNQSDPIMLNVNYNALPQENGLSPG

B1: CP08A03/Vκ8 S29A (antibody, IgG4, V domains shown)
VH: EVQLLESGGGLVQPGGSLRLSCAASGFIFNNHAISWVRQAPGKGLEWVATISSGGTYTYYPDSVKGRFTISRDNSKNTLYLQMNSLKAEDTAMYYCARHDFDYDAAWFAYWGQGTLVTVSS
VL: EIVLTQSPATLSLSPGERATLSCRANSAVSYMYWYQQKPGQAPRPWIYLTSNRATGVPARFSGSGSGTDYTLTISSLEPEDFAVYYCQQWSSNPPTFGQGTKLEIK
notes: IgG4 (S241P), kappa
B2: CP08G10/Vκ8 S29A (antibody, IgG4, V domains shown)
VH: B1 VH with N30S, N31S, A33G, I34M, D104F, A105P, Y110F
VL: B1 VL
notes: IgG4 (S241P), kappa
B3: CP08C04/Vκ8 S29A (antibody, IgG4, V domains shown)
VH: B1 VH with I28T, N30S, N31S, A33G, I34M
VL: B1 VL
notes: IgG4 (S241P), kappa
B4: CP08B11/Vκ8 S29A (antibody, IgG4, V domains shown)
VH: B1 VH with I28T, N30T, A33G, I34M
VL: B1 VL
notes: IgG4 (S241P), kappa
B5: CP09B02/Vκ8 S29A (antibody, IgG4, V domains shown)
VH: B1 VH with I28T, N30T, N31S
VL: B1 VL
notes: IgG4 (S241P), kappa
B6: CP08D11/Vκ8 S29A (antibody, IgG4, V domains shown)
VH: B1 VH with F27Y, I28S, N30S, N31A, A33G, I34M
VL: B1 VL
notes: IgG4 (S241P), kappa
B7: CP08B01/Vκ8 S29A (antibody, IgG4, V domains shown)
VH: B1 VH with I28T, N30S, N31A, I34M
VL: B1 VL
notes: IgG4 (S241P), kappa
B8: CP08D01/Vκ8 S29A (antibody, IgG4, V domains shown)
VH: B1 VH with I28T, N31A, A33G, I34M
VL: B1 VL
notes: IgG4 (S241P), kappa
B9: CP08C01/Vκ8 S29A (antibody, IgG4, V domains shown)
VH: B1 VH with F27Y, I28S, N30S, A33G, I34M
VL: B1 VL
notes: IgG4 (S241P), kappa
B10: VH1/CP08G02 (antibody, IgG4, V domains shown)
VH: B1 VH with N30S, N31S, A33G, I34M
VL: B1 VL with S91T, S92N
notes: IgG4 (S241P), kappa
B11: CP09A04/Vκ8 S29A (antibody, IgG4, V domains shown)
VH: B1 VH with I28S, N31A, I34M
VL: B1 VL
notes: IgG4 (S241P), kappa
B12: CP09E03/Vκ8 S29A (antibody, IgG4, V domains shown)
VH: B1 VH with I28T, N30S, N31A
VL: B1 VL
notes: IgG4 (S241P), kappa
B13: CP08B06/Vκ8 S29A (antibody, IgG4, V domains shown)
VH: B1 VH with I28S, N31S
VL: B1 VL
notes: IgG4 (S241P), kappa
B14: CP08F07/Vκ8 S29A (antibody, IgG4, V domains shown)
VH: B1 VH with I28T, N30T, N31D
VL: B1 VL
notes: IgG4 (S241P), kappa
B15: CP08B04/Vκ8 S29A (antibody, IgG4, V domains shown)
VH: B1 VH with N30S, N31S, A33G, I34M, D104F, A105P, Y110L
VL: B1 VL
notes: IgG4 (S241P), kappa
B16: CP08A06/Vκ8 S29A (antibody, IgG4, V domains shown)
VH: B1 VH with F27Y, I28S, N30S, N31S, A33G, I34M
VL: B1 VL
notes: IgG4 (S241P), kappa
B17: CP08A08/Vκ8 S29A (antibody, IgG4, V domains shown)
VH: B1 VH with N30T, A33G, I34M
VL: B1 VL
notes: IgG4 (S241P), kappa
B18: CP09G03/Vκ8 S29A (antibody, IgG4, V domains shown)
VH: B1 VH with I28T, N31A, I34M
VL: B1 VL
notes: IgG4 (S241P), kappa
B19: CP08H01/Vκ8 S29A (antibody, IgG4, V domains shown)
VH: B1 VH with N30S, N31S, A33G, I34M, R98K, D100P, F101P, D104F
VL: B1 VL
notes: IgG4 (S241P), kappa
B20: CP08B03/Vκ8 S29A (antibody, IgG4, V domains shown)
VH: B1 VH with I28T, N30T, N31A
VL: B1 VL
notes: IgG4 (S241P), kappa
B21: VH1/CP08G01 (antibody, IgG4, V domains shown)
VH: B1 VH with N30S, N31S, A33G, I34M
VL: B1 VL with W90N, S91T, S92N, N93L, P95F
notes: IgG4 (S241P), kappa
B22: CP09F03/Vκ8 S29A (antibody, IgG4, V domains shown)
VH: B1 VH with I28T, A33G, I34M
VL: B1 VL
notes: IgG4 (S241P), kappa
B23: CP09D03/Vκ8 S29A (antibody, IgG4, V domains shown)
VH: B1 VH with I28T, N30S, N31S
VL: B1 VL
notes: IgG4 (S241P), kappa
B24: VH1/CP09F05 (antibody, IgG4, V domains shown)
VH: B1 VH with N30S, N31S, A33G, I34M
VL: B1 VL with W90N, S91T, S92A, N93L, P95F
notes: IgG4 (S241P), kappa

Changes are numbered by the printed parent chain. In names and notes the source's numbering stands.

The experiment concerns the target T1, His-tagged CEACAM1. Briefly: SPR single-cycle, supernatant IgG captured. The method, then: In order to assess the binding of the humanized, affinity matured reformatted lead IgGs, single-cycle kinetics analysis was performed on crude supernatants using a Biacore T200 running Biacore T200 Control Software V2.0.1 and Biacore T200 Evaluation Software V3.0. Antibodies were diluted in HBS-P+ to a final concentration of 0.5 μg/ml. At the start of each cycle, antibodies were loaded onto Fc2, Fc3 and Fc4 of the Protein A chip. IgGs were captured at a flow rate of 10 μl/min to give an immobilisation level (RL) of ˜100 RU (a level calculated to obtain a Rₘₐₓ of ˜50-150 RU once the analyte is bound). The surface was then allowed to stabilize. Single-cycle kinetics data was obtained with CEACAM1 as the analyte at a flow rate of 80 μl/min to minimize any potential mass transfer effects. Multiple repeats with the parent (VH1/Vκ8 S29A) antibody were performed to check the stability of the surface and analyte over the kinetic cycles. The signal from the reference channel Fc1 (no antibody) was subtracted from that of Fc2, Fc3 and Fc4 to correct for differences in non-specific binding to the reference surface. A three point, two-fold dilution range from 70 nM to 280 nM CEACAM1 without regeneration between each concentration was used. The signal from each antibody blank run (no CEACAM1) was subtracted to correct for differences in surface stability. The association phase for the three injections of increasing concentrations of CEACAM1 was monitored for 80 seconds each time and a single dissociation phase was measured for 150 seconds following the last injection of CEACAM1. Regeneration of the Protein A surface was conducted using two injections of 10 mM glycine-HCL pH 1.5 followed by a stabilization period of 250 seconds.
Take B1: binding was put at a Kd of 430 nM, the koff amounted to 0.039 s⁻¹, the on-rate (kon) was determined as 93000 M⁻¹ s⁻¹ and the “relative KD to parent” value was determined as 1.3.
As to B2, the Kd came to 630 nM, the koff stood at 0.055 s⁻¹, the kon is 87000 M⁻¹ s⁻¹ and the “relative KD to parent” value was 0.9.
For B3 the same measures were 1200 nM, 0.26 s⁻¹, 220000 M⁻¹ s⁻¹ and 0.5.
For B4 the same measures were 610 nM, 0.059 s⁻¹, 96000 M⁻¹ s⁻¹ and 0.9.
For B5 the same measures were 340 nM, 0.04 s⁻¹, 120000 M⁻¹ s⁻¹ and 1.6.
With B6, binding was put at a Kd of 2000 nM, the off-rate constant (koff) was 0.17 s⁻¹, the kon amounted to 86000 M⁻¹ s⁻¹ and the “relative KD to parent” value came out at 0.3.
For B7, in that order: 610 nM, 0.044 s⁻¹, 72000 M⁻¹ s⁻¹ and 0.9.
For B8, in that order: 300 nM, 0.043 s⁻¹, 140000 M⁻¹ s⁻¹ and 1.9.
Consider B9, for which the Kd turned out to be 1200 nM, the koff came out at 0.1 s⁻¹, the kon is 82000 M⁻¹ s⁻¹ and the “relative KD to parent” value amounted to 0.5.
For B10, in that order: 2300 nM, 0.052 s⁻¹, 23000 M⁻¹ s⁻¹ and 0.3.
For B11, in that order: 400 nM, 0.036 s⁻¹, 90000 M⁻¹ s⁻¹ and 1.4.
For B12, in that order: 400 nM, 0.037 s⁻¹, 110000 M⁻¹ s⁻¹ and 1.6.
Regarding B13, the Kd was determined as 420 nM, the off-rate constant (koff) turned out to be 0.044 s⁻¹, the kon turned out to be 110000 M⁻¹ s⁻¹ and the “relative KD to parent” value came to 1.3.
For the molecule B14, binding was put at a Kd of 470 nM, the dissociation rate constant (koff) was found to be 0.081 s⁻¹, the association rate constant (kon) was found to be 170000 M⁻¹ s⁻¹ and the “relative KD to parent” value is 1.2.
For B15 the same measures were 410 nM, 0.049 s⁻¹, 120000 M⁻¹ s⁻¹ and 1.4.
Consider B16, for which the Kd is 440 nM, the koff came to 0.075 s⁻¹, the kon worked out at 170000 M⁻¹ s⁻¹ and the “relative KD to parent” value came to 1.3.
For B17 the same measures were 1300 nM, 0.073 s⁻¹, 57000 M⁻¹ s⁻¹ and 0.4.
For B18, in that order: 350 nM, 0.038 s⁻¹, 110000 M⁻¹ s⁻¹ and 1.5.
For B19 the same measures were 420 nM, 0.087 s⁻¹, 210000 M⁻¹ s⁻¹ and 1.3.
With B20, binding was put at a Kd of 360 nM, the koff is 0.069 s⁻¹, the kon was found to be 200000 M⁻¹ s⁻¹ and the “relative KD to parent” value came out at 1.6.
For B21, the Kd is 400 nM, the koff turned out to be 0.047 s⁻¹, the on-rate (kon) was 120000 M⁻¹ s⁻¹ and the “relative KD to parent” value came out at 1.5.
For B22, in that order: 1000 nM, 0.076 s⁻¹, 74000 M⁻¹ s⁻¹ and 0.5.
For B23 the same measures were 310 nM, 0.033 s⁻¹, 110000 M⁻¹ s⁻¹ and 1.8.
As to B24, the dissociation constant (Kd) was 1600 nM, the dissociation rate constant (koff) was 0.055 s⁻¹, the on-rate (kon) was 35000 M⁻¹ s⁻¹ and the “relative KD to parent” value was 0.4.

For the origin of these results see patent publication US20250074980A1 (BRIGHAM AND WOMEN S HOSPITAL, published 2025).
